Assay results from patent US12679878B2, “CRF2 receptor agonists and their use in therapy” (SANOFI, priority 2020, dated 2026).
Starred links: 1 amine or outer side, 2 acyl side, 3 side chain; linkers in the order of their positions; H or OH if unused. Non-standard residues stand in square brackets, D forms with d. Groups on a side chain read outwards from the residue. No end group written: not given here. *: point of attachment. C20 diacid = O=C(O)CCCCCCCCCCCCCCCCCCC(=O)*; C18 diacid = O=C(O)CCCCCCCCCCCCCCCCC(=O)*; C16 diacid = O=C(O)CCCCCCCCCCCCCCC(=O)*; γGlu = O=C(O)[C@H](CCC(=O)[*:2])N[*:1]; Palmitoyl = CCCCCCCCCCCCCCCC(=O)*; AEEA = NCCOCCOCC(=O)O; Aib = CC(C)(N)C(=O)O

target: human corticotropin-releasing factor 2α (CRF2 α receptor) (human), Q13324; experiment: cell-based or functional assay
Sequence (Q13324 20-411): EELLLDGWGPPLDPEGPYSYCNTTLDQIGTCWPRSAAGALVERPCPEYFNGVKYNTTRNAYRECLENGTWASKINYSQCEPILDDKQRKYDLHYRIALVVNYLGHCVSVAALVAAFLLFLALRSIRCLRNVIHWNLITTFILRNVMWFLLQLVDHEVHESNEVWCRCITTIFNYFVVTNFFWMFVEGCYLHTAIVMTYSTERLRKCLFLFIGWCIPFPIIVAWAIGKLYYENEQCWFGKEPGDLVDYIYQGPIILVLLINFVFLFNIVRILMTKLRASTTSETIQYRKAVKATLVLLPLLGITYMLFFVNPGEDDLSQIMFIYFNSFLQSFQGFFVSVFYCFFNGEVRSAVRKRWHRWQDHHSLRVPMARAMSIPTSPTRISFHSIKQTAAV

Binder | EC50 [nM], 0% HSA [nM] | EC50 [nM], 0.1% HSA [nM]
IVLSLD[dV]PTKLK([γGlu-Palmitoyl])KKLLKQERKRKEREKAEKNARILERV-NH2 (N-terminus assumed; SMILES CCCCCCCCCCCCCCCC(=O)N[C@@H](CCC(=O)NCCCC[C@H](NC(=O)[C@H](CC(C)C)NC(=O)[C@H](CCCCN)NC(=O)[C@@H](NC(=O)[C@@H]1CCCN1C(=O)[C@H](NC(=O)[C@H](CC(=O)O)NC(=O)[C@H](CC(C)C)NC(=O)[C@H](CO)NC(=O)[C@H](CC(C)C)NC(=O)[C@@H](NC(=O)[C@@H](N)[C@@H](C)CC)C(C)C)C(C)C)[C@@H](C)O)C(=O)N[C@@H](CCCCN)C(=O)N[C@@H](CCCCN)C(=O)N[C@@H](CC(C)C)C(=O)N[C@@H](CC(C)C)C(=O)N[C@@H](CCCCN)C(=O)N[C@@H](CCC(N)=O)C(=O)N[C@@H](CCC(=O)O)C(=O)N[C@@H](CCCNC(=N)N)C(=O)N[C@@H](CCCCN)C(=O)N[C@@H](CCCNC(=N)N)C(=O)N[C@@H](CCCCN)C(=O)N[C@@H](CCC(=O)O)C(=O)N[C@@H](CCCNC(=N)N)C(=O)N[C@@H](CCC(=O)O)C(=O)N[C@@H](CCCCN)C(=O)N[C@@H](C)C(=O)N[C@@H](CCC(=O)O)C(=O)N[C@@H](CCCCN)C(=O)N[C@@H](CC(N)=O)C(=O)N[C@@H](C)C(=O)N[C@@H](CCCNC(=N)N)C(=O)N[C@H](C(=O)N[C@@H](CC(C)C)C(=O)N[C@@H](CCC(=O)O)C(=O)N[C@@H](CCCNC(=N)N)C(=O)N[C@H](C(N)=O)C(C)C)[C@@H](C)CC)C(=O)O) [SEQ ID NO: 25] | 0.09 | 
IVLSLD[dV]PTKLK([γGlu-Palmitoyl])QKLLKQERQRKER[Aib]QAEKNKRILERV-NH2 (N-terminus assumed; SMILES CCCCCCCCCCCCCCCC(=O)N[C@@H](CCC(=O)NCCCC[C@H](NC(=O)[C@H](CC(C)C)NC(=O)[C@H](CCCCN)NC(=O)[C@@H](NC(=O)[C@@H]1CCCN1C(=O)[C@H](NC(=O)[C@H](CC(=O)O)NC(=O)[C@H](CC(C)C)NC(=O)[C@H](CO)NC(=O)[C@H](CC(C)C)NC(=O)[C@@H](NC(=O)[C@@H](N)[C@@H](C)CC)C(C)C)C(C)C)[C@@H](C)O)C(=O)N[C@@H](CCC(N)=O)C(=O)N[C@@H](CCCCN)C(=O)N[C@@H](CC(C)C)C(=O)N[C@@H](CC(C)C)C(=O)N[C@@H](CCCCN)C(=O)N[C@@H](CCC(N)=O)C(=O)N[C@@H](CCC(=O)O)C(=O)N[C@@H](CCCNC(=N)N)C(=O)N[C@@H](CCC(N)=O)C(=O)N[C@@H](CCCNC(=N)N)C(=O)N[C@@H](CCCCN)C(=O)N[C@@H](CCC(=O)O)C(=O)N[C@@H](CCCNC(=N)N)C(=O)NC(C)(C)C(=O)N[C@@H](CCC(N)=O)C(=O)N[C@@H](C)C(=O)N[C@@H](CCC(=O)O)C(=O)N[C@@H](CCCCN)C(=O)N[C@@H](CC(N)=O)C(=O)N[C@@H](CCCCN)C(=O)N[C@@H](CCCNC(=N)N)C(=O)N[C@H](C(=O)N[C@@H](CC(C)C)C(=O)N[C@@H](CCC(=O)O)C(=O)N[C@@H](CCCNC(=N)N)C(=O)N[C@H](C(N)=O)C(C)C)[C@@H](C)CC)C(=O)O) [SEQ ID NO: 23] | 0.02 | 
IVLSLD[dV]PTKLK([AEEA-AEEA-γGlu-C18 diacid])QKLLKQERQRKEREQAEKNKRILERV-NH2 (N-terminus assumed; SMILES CC[C@H](C)[C@H](N)C(=O)N[C@H](C(=O)N[C@@H](CC(C)C)C(=O)N[C@@H](CO)C(=O)N[C@@H](CC(C)C)C(=O)N[C@@H](CC(=O)O)C(=O)N[C@@H](C(=O)N1CCC[C@H]1C(=O)N[C@H](C(=O)N[C@@H](CCCCN)C(=O)N[C@@H](CC(C)C)C(=O)N[C@@H](CCCCNC(=O)COCCOCCNC(=O)COCCOCCNC(=O)CC[C@H](NC(=O)CCCCCCCCCCCCCCCCC(=O)O)C(=O)O)C(=O)N[C@@H](CCC(N)=O)C(=O)N[C@@H](CCCCN)C(=O)N[C@@H](CC(C)C)C(=O)N[C@@H](CC(C)C)C(=O)N[C@@H](CCCCN)C(=O)N[C@@H](CCC(N)=O)C(=O)N[C@@H](CCC(=O)O)C(=O)N[C@@H](CCCNC(=N)N)C(=O)N[C@@H](CCC(N)=O)C(=O)N[C@@H](CCCNC(=N)N)C(=O)N[C@@H](CCCCN)C(=O)N[C@@H](CCC(=O)O)C(=O)N[C@@H](CCCNC(=N)N)C(=O)N[C@@H](CCC(=O)O)C(=O)N[C@@H](CCC(N)=O)C(=O)N[C@@H](C)C(=O)N[C@@H](CCC(=O)O)C(=O)N[C@@H](CCCCN)C(=O)N[C@@H](CC(N)=O)C(=O)N[C@@H](CCCCN)C(=O)N[C@@H](CCCNC(=N)N)C(=O)N[C@H](C(=O)N[C@@H](CC(C)C)C(=O)N[C@@H](CCC(=O)O)C(=O)N[C@@H](CCCNC(=N)N)C(=O)N[C@H](C(N)=O)C(C)C)[C@@H](C)CC)[C@@H](C)O)C(C)C)C(C)C) [SEQ ID NO: 24] | 6.95 | 

Other lines, results leading:

EC50 [nM], 0% HSA [nM] | EC50 [nM], 0.1% HSA [nM] | Binder
0.12 | 1.58 | IVLSLD[dV]PIKLK(C18 diacid)QILLKQARQK[Aib]QRAQAEKNKRILERV-NH2 (N-terminus assumed; SMILES CC[C@H](C)[C@H](N)C(=O)N[C@H](C(=O)N[C@@H](CC(C)C)C(=O)N[C@@H](CO)C(=O)N[C@@H](CC(C)C)C(=O)N[C@@H](CC(=O)O)C(=O)N[C@@H](C(=O)N1CCC[C@H]1C(=O)N[C@H](C(=O)N[C@@H](CCCCN)C(=O)N[C@@H](CC(C)C)C(=O)N[C@@H](CCCCNC(=O)CCCCCCCCCCCCCCCCC(=O)O)C(=O)N[C@@H](CCC(N)=O)C(=O)N[C@H](C(=O)N[C@@H](CC(C)C)C(=O)N[C@@H](CC(C)C)C(=O)N[C@@H](CCCCN)C(=O)N[C@@H](CCC(N)=O)C(=O)N[C@@H](C)C(=O)N[C@@H](CCCNC(=N)N)C(=O)N[C@@H](CCC(N)=O)C(=O)N[C@@H](CCCCN)C(=O)NC(C)(C)C(=O)N[C@@H](CCC(N)=O)C(=O)N[C@@H](CCCNC(=N)N)C(=O)N[C@@H](C)C(=O)N[C@@H](CCC(N)=O)C(=O)N[C@@H](C)C(=O)N[C@@H](CCC(=O)O)C(=O)N[C@@H](CCCCN)C(=O)N[C@@H](CC(N)=O)C(=O)N[C@@H](CCCCN)C(=O)N[C@@H](CCCNC(=N)N)C(=O)N[C@H](C(=O)N[C@@H](CC(C)C)C(=O)N[C@@H](CCC(=O)O)C(=O)N[C@@H](CCCNC(=N)N)C(=O)N[C@H](C(N)=O)C(C)C)[C@@H](C)CC)[C@@H](C)CC)[C@@H](C)CC)C(C)C)C(C)C) [SEQ ID NO: 183]
0.01 |  | IVLSLD[dV]PTKLK([γGlu-C16 diacid])QKLLKQERQRKEREQAEKNVRILERV-NH2 (N-terminus assumed; SMILES CC[C@H](C)[C@H](N)C(=O)N[C@H](C(=O)N[C@@H](CC(C)C)C(=O)N[C@@H](CO)C(=O)N[C@@H](CC(C)C)C(=O)N[C@@H](CC(=O)O)C(=O)N[C@@H](C(=O)N1CCC[C@H]1C(=O)N[C@H](C(=O)N[C@@H](CCCCN)C(=O)N[C@@H](CC(C)C)C(=O)N[C@@H](CCCCNC(=O)CC[C@H](NC(=O)CCCCCCCCCCCCCCC(=O)O)C(=O)O)C(=O)N[C@@H](CCC(N)=O)C(=O)N[C@@H](CCCCN)C(=O)N[C@@H](CC(C)C)C(=O)N[C@@H](CC(C)C)C(=O)N[C@@H](CCCCN)C(=O)N[C@@H](CCC(N)=O)C(=O)N[C@@H](CCC(=O)O)C(=O)N[C@@H](CCCNC(=N)N)C(=O)N[C@@H](CCC(N)=O)C(=O)N[C@@H](CCCNC(=N)N)C(=O)N[C@@H](CCCCN)C(=O)N[C@@H](CCC(=O)O)C(=O)N[C@@H](CCCNC(=N)N)C(=O)N[C@@H](CCC(=O)O)C(=O)N[C@@H](CCC(N)=O)C(=O)N[C@@H](C)C(=O)N[C@@H](CCC(=O)O)C(=O)N[C@@H](CCCCN)C(=O)N[C@@H](CC(N)=O)C(=O)N[C@H](C(=O)N[C@@H](CCCNC(=N)N)C(=O)N[C@H](C(=O)N[C@@H](CC(C)C)C(=O)N[C@@H](CCC(=O)O)C(=O)N[C@@H](CCCNC(=N)N)C(=O)N[C@H](C(N)=O)C(C)C)[C@@H](C)CC)C(C)C)[C@@H](C)O)C(C)C)C(C)C) [SEQ ID NO: 222]
0.05 | 2.83 | IVLSLD[dV]PIKLK(C18 diacid)QILLKQERQKKQRQQAEKNKQILAQV-NH2 (N-terminus assumed; SMILES CC[C@H](C)[C@H](N)C(=O)N[C@H](C(=O)N[C@@H](CC(C)C)C(=O)N[C@@H](CO)C(=O)N[C@@H](CC(C)C)C(=O)N[C@@H](CC(=O)O)C(=O)N[C@@H](C(=O)N1CCC[C@H]1C(=O)N[C@H](C(=O)N[C@@H](CCCCN)C(=O)N[C@@H](CC(C)C)C(=O)N[C@@H](CCCCNC(=O)CCCCCCCCCCCCCCCCC(=O)O)C(=O)N[C@@H](CCC(N)=O)C(=O)N[C@H](C(=O)N[C@@H](CC(C)C)C(=O)N[C@@H](CC(C)C)C(=O)N[C@@H](CCCCN)C(=O)N[C@@H](CCC(N)=O)C(=O)N[C@@H](CCC(=O)O)C(=O)N[C@@H](CCCNC(=N)N)C(=O)N[C@@H](CCC(N)=O)C(=O)N[C@@H](CCCCN)C(=O)N[C@@H](CCCCN)C(=O)N[C@@H](CCC(N)=O)C(=O)N[C@@H](CCCNC(=N)N)C(=O)N[C@@H](CCC(N)=O)C(=O)N[C@@H](CCC(N)=O)C(=O)N[C@@H](C)C(=O)N[C@@H](CCC(=O)O)C(=O)N[C@@H](CCCCN)C(=O)N[C@@H](CC(N)=O)C(=O)N[C@@H](CCCCN)C(=O)N[C@@H](CCC(N)=O)C(=O)N[C@H](C(=O)N[C@@H](CC(C)C)C(=O)N[C@@H](C)C(=O)N[C@@H](CCC(N)=O)C(=O)N[C@H](C(N)=O)C(C)C)[C@@H](C)CC)[C@@H](C)CC)[C@@H](C)CC)C(C)C)C(C)C) [SEQ ID NO: 184]
6.85 |  | IVLSLD[dV]PTKLK([AEEA-AEEA-γGlu-C20 diacid])KKLLKQERKR[Aib]EREKAEKAARILERV-NH2 [SEQ ID NO: 224]
